Assay results as given in patent US6018021.

Assays:
[1] = molecular target: full-length recombinant TAL-H protein (38 kDa), cleaved with thrombin from a GST fusion protein (human)
[2] = molecular target: purified human myelin basic protein (18.5 kDa) (human) (UniProt P02686)
[3] = molecular target: tetanus toxoid (Clostridium tetani (strain Massachusetts / E88)) (UniProt P04958)
[4] = molecular target: full-length recombinant TAL-H protein (38 kDa), cleaved with thrombin from a GST fusion protein (human); remark: listed apart in the source

Substance	3H-TdR incorporation, Stimulation Index (S.I.) [1] [S.I.]	Stimulation Index [2] [S.I.]	Stimulation Index [3] [S.I.]	Stimulation Index [4] [S.I.]
peripheral blood lymphocytes of MS patient eight (cells without a defined receptor)	4.5			
peripheral blood lymphocytes of MS patient fifteen (cells without a defined receptor)		1.53	0.96	4.61
peripheral blood lymphocytes of MS patient fourteen (cells without a defined receptor)	7.1			
peripheral blood lymphocytes of MS patient nine (cells without a defined receptor)	3.1			
peripheral blood lymphocytes of MS patient one (cells without a defined receptor)		0.89	0.8	1.81
peripheral blood lymphocytes of MS patient seven (cells without a defined receptor)	1.4			
peripheral blood lymphocytes of MS patient seventeen (cells without a defined receptor)		3.01	3.81	6.47
peripheral blood lymphocytes of MS patient six (cells without a defined receptor)	2.9			
peripheral blood lymphocytes of MS patient thirteen (cells without a defined receptor)		2.25	0.79	3.95
peripheral blood lymphocytes of MS patient two (cells without a defined receptor)	4.7			
peripheral blood lymphocytes of control donor sixteen (cells without a defined receptor)	1.4			
peripheral blood lymphocytes of control donor ten (cells without a defined receptor)	2.3			

Now from value to substance, other results behind:

3H-TdR incorporation, Stimulation Index (S.I.) [1] [S.I.]	Substance	Stimulation Index [2] [S.I.]	Stimulation Index [3] [S.I.]	Stimulation Index [4] [S.I.]
10.3	peripheral blood lymphocytes of MS patient eleven (cells without a defined receptor)			
3.3	peripheral blood lymphocytes of MS patient five (cells without a defined receptor)			
2.7	peripheral blood lymphocytes of MS patient four (cells without a defined receptor)			
3.1	peripheral blood lymphocytes of MS patient twelve (cells without a defined receptor)			
0.7	peripheral blood lymphocytes of control donor PEG (cells without a defined receptor)			
1	peripheral blood lymphocytes of control donor PRO (cells without a defined receptor)			
1	peripheral blood lymphocytes of control donor three (cells without a defined receptor)			
